The values that follow come from patent publication US20160272680A1 (Bristol-Myers Squibb, published 2016).

Numbered stars: 1 amine (or outer) side, 2 acyl side, 3 side chain; on linkers, the order of the positions; unused ones are H or OH. Bridge positions count the residues as written; N and C are the ends. Square brackets hold non-standard residues; d marks the D form. Ends that are not written are not given here. * marks the point of attachment. Trp(1-CH2CO) = O=C([C@H](Cc1cn(CC(=O)[*:3])c2ccccc12)N[*:1])[*:2]; Hyp = O=C(O)[C@@H]1C[C@@H](O)CN1; NMeNle = CCCC[C@H](NC)C(=O)O; NMeA = CN[C@@H](C)C(=O)O; Dab = NCC[C@H](N)C(=O)O; Dap = NC[C@H](N)C(=O)O; NH(propargyl) = C#CCN*; NHBn = c1ccc(CN*)cc1

To fix the notation:
B1: Example 13091 (peptide)
peptide: {CH2CO}-Y[NMeA]NP[Dap]L[Hyp]WGW[NMeNle][NMeNle]LCG-cyclopropylamide
modifications: thioether N-14
notes: Macrocyclic peptide
B2: Example 13086 (peptide)
peptide: {CH2CO}-Y[NMeA]NP[Dap]L[Hyp]WGW[NMeNle][NMeNle]LCG-{piperidin‑1‑yl amide}
modifications: thioether N-14
notes: Macrocyclic peptide
B3: Example 13080 (peptide)
peptide: {CH2CO}-Y[NMeA]NP[Dap]L[Hyp]W[Dab][Trp(1-CH2CO)][NMeNle][NMeNle]LCG-NHBn
modifications: thioether N-14
SMILES: CCCC[C@H]1C(=O)N(C)[C@@H](CCCC)C(=O)N[C@@H](CC(C)C)C(=O)N[C@H](C(=O)NCC(=O)NCc2ccccc2)CSCC(=O)N[C@@H](Cc2ccc(O)cc2)C(=O)N(C)[C@@H](C)C(=O)N[C@@H](CC(N)=O)C(=O)N2CCC[C@H]2C(=O)N[C@@H](CN)C(=O)N[C@@H](CC(C)C)C(=O)N2C[C@H](O)C[C@H]2C(=O)N[C@@H](Cc2c[nH]c3ccccc23)C(=O)N[C@@H](CCN)C(=O)N[C@@H](Cc2cn(CC(=O)O)c3ccccc23)C(=O)N1C
notes: Macrocyclic peptide
B4: Example 13107 (peptide)
peptide: {CH2CO}-Y[NMeA]NP[Dap]L[Hyp]WGW[NMeNle][NMeNle]LCG-{N‑(3-aminopropyl)diethanolamine}
modifications: thioether N-14
notes: Macrocyclic peptide
B5: Example 13085 (peptide)
peptide: {CH2CO}-Y[NMeA]NP[Dap]L[Hyp]WGW[NMeNle][NMeNle]LCG-{pyrrolidin‑1‑yl amide}
modifications: thioether N-14
notes: Macrocyclic peptide
B6: Example 13103 (peptide)
peptide: {CH2CO}-Y[NMeA]NP[Dap]L[Hyp]WGW[NMeNle][NMeNle]LCG-{4‑(dimethylamino)piperidine amide}
modifications: thioether N-14
notes: Macrocyclic peptide
B7: Example 13089 (peptide)
peptide: {CH2CO}-Y[NMeA]NP[Dap]L[Hyp]WGW[NMeNle][NMeNle]LCG-{methylpiperazine amide}
modifications: thioether N-14
notes: Macrocyclic peptide
B8: Example 13095 (peptide)
peptide: {CH2CO}-Y[NMeA]NP[Dap]L[Hyp]WGW[NMeNle][NMeNle]LCG-{ethanolamine amide}
modifications: thioether N-14
notes: Macrocyclic peptide
B9: Example 13115 (peptide)
peptide: {CH2CO}-Y[NMeA]NP[Dap]L[Hyp]WGW[NMeNle][NMeNle]LCG-{4‑(4-chlorophenyl)piperidine}
modifications: thioether N-14
notes: Macrocyclic peptide
B10: Example 13109 (peptide)
peptide: {CH2CO}-Y[NMeA]NP[Dap]L[Hyp]WGW[NMeNle][NMeNle]LCG-{tert‑butyl 3‑aminopropanoate}
modifications: thioether N-14
notes: Macrocyclic peptide
B11: Example 13106 (peptide)
peptide: {CH2CO}-Y[NMeA]NP[Dap]L[Hyp]WGW[NMeNle][NMeNle]LCG-{4‑aminocyclohexanol}
modifications: thioether N-14
notes: Macrocyclic peptide
B12: Example 13116 (peptide)
peptide: {CH2CO}-Y[NMeA]NP[Dap]L[Hyp]WGW[NMeNle][NMeNle]LCG-{2‑aminoethylmethylsulfone}
modifications: thioether N-14
notes: Macrocyclic peptide
B13: Example 13082 (peptide)
peptide: {CH2CO}-Y[NMeA]NP[Dap]L[Hyp]WGW[NMeNle][NMeNle]LCG-{2‑methoxyethylamide}
modifications: thioether N-14
notes: Macrocyclic peptide
B14: Example 13099 (peptide)
peptide: {CH2CO}-Y[NMeA]NP[Dap]L[Hyp]WGW[NMeNle][NMeNle]LCG-{1‑(3-aminopropyl)imidazole amide}
modifications: thioether N-14
notes: Macrocyclic peptide
B15: Example 13092 (peptide)
peptide: {CH2CO}-Y[NMeA]NP[Dap]L[Hyp]WGW[NMeNle][NMeNle]LCG-cyclobutylamide
modifications: thioether N-14
notes: Macrocyclic peptide
B16: Example 13108 (peptide)
peptide: {CH2CO}-Y[NMeA]NP[Dap]L[Hyp]WGW[NMeNle][NMeNle]LCG-{2‑phenoxyethylamine}
modifications: thioether N-14
notes: Macrocyclic peptide
B17: Example 13096 (peptide)
peptide: {CH2CO}-Y[NMeA]NP[Dap]L[Hyp]WGW[NMeNle][NMeNle]LCG-{NH(propargyl)}
modifications: thioether N-14
SMILES: C#CCNC(=O)CNC(=O)[C@@H]1CSCC(=O)N[C@@H](Cc2ccc(O)cc2)C(=O)N(C)[C@@H](C)C(=O)N[C@@H](CC(N)=O)C(=O)N2CCC[C@H]2C(=O)N[C@@H](CN)C(=O)N[C@@H](CC(C)C)C(=O)N2C[C@H](O)C[C@H]2C(=O)N[C@@H](Cc2c[nH]c3ccccc23)C(=O)NCC(=O)N[C@@H](Cc2c[nH]c3ccccc23)C(=O)N(C)[C@@H](CCCC)C(=O)N(C)[C@@H](CCCC)C(=O)N[C@@H](CC(C)C)C(=O)N1
notes: Macrocyclic peptide
B18: Example 13100 (peptide)
peptide: {CH2CO}-Y[NMeA]NP[Dap]L[Hyp]WGW[NMeNle][NMeNle]LCG-butylamide
modifications: thioether N-14
notes: Macrocyclic peptide
B19: Example 13098 (peptide)
peptide: {CH2CO}-Y[NMeA]NP[Dap]L[Hyp]WGW[NMeNle][NMeNle]LCG-{N,N‑dimethyl‑1,3‑propanediamine amide}
modifications: thioether N-14
notes: Macrocyclic peptide
B20: Example 13087 (peptide)
peptide: {CH2CO}-Y[NMeA]NP[Dap]L[Hyp]WGW[NMeNle][NMeNle]LCG-{morpholine amide}
modifications: thioether N-14
notes: Macrocyclic peptide
B21: Example 13111 (peptide)
peptide: {CH2CO}-Y[NMeA]NP[Dap]L[Hyp]WGW[NMeNle][NMeNle]LCG-{4‑piperidinemethanol}
modifications: thioether N-14
notes: Macrocyclic peptide
B22: Example 13104 (peptide)
peptide: {CH2CO}-Y[NMeA]NP[Dap]L[Hyp]WGW[NMeNle][NMeNle]LCG
modifications: thioether N-14; not fully specified (C-terminus)
notes: Macrocyclic peptide
B23: Example 13113 (peptide)
peptide: {CH2CO}-Y[NMeA]NP[Dap]L[Hyp]WGW[NMeNle][NMeNle]LCG-{N‑(2-aminoethyl)‑N‑methyl carbamic acid tert‑butyl ester}
modifications: thioether N-14
notes: Macrocyclic peptide
B24: Example 13101 (peptide)
peptide: {CH2CO}-Y[NMeA]NP[Dap]L[Hyp]WGW[NMeNle][NMeNle]LCG-{2‑(phenylthio)ethanamine amide}
modifications: thioether N-14
notes: Macrocyclic peptide
B25: Example 13094 (peptide)
peptide: {CH2CO}-Y[NMeA]NP[Dap]L[Hyp]WGW[NMeNle][NMeNle]LCG-{3‑(aminomethyl)pyridine amide}
modifications: thioether N-14
notes: Macrocyclic peptide
B26: Example 13097 (peptide)
peptide: {CH2CO}-Y[NMeA]NP[Dap]L[Hyp]WGW[NMeNle][NMeNle]LCG-allylamide
modifications: thioether N-14
notes: Macrocyclic peptide
B27: Example 13112 (peptide)
peptide: {CH2CO}-Y[NMeA]NP[Dap]L[Hyp]WGW[NMeNle][NMeNle]LCG-{N‑Boc‑1,5‑diaminopentane}
modifications: thioether N-14
notes: Macrocyclic peptide
B28: Example 13084 (peptide)
peptide: {CH2CO}-Y[NMeA]NP[Dap]L[Hyp]WGW[NMeNle][NMeNle]LCG-{N‑methyl‑N‑propylamide}
modifications: thioether N-14
notes: Macrocyclic peptide

T1 sequence (Q9NZQ7 other isoform, or with tags, fused parts or gaps limits assumed): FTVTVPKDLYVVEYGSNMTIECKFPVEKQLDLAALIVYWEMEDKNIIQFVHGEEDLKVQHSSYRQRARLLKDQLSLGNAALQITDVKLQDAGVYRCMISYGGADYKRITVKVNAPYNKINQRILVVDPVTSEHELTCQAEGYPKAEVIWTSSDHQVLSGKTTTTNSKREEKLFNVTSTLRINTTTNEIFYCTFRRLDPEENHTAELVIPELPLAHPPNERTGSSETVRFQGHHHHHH

One test concerns the target T1, hPDL1(19-239)-TVMV-His (human, UniProt Q9NZQ7 19-239).
T1 construct: Expressed in HEK293T cells; The text says amino acids 18-239, but the construct is named hPD-L1(19-239); The whole entry, including the TVMV site and His tag, is the protein used in the assay; also called PD-L1-TVMV-His; PD-L1-His
Description: HTRF competition of PD-1-Ig binding to PD-L1-His; code B=0.004-0.0099 µM. As to the method:
(§1) Homogenous Time-Resolved Fluorescence (HTRF) Assays of Binding of Soluble PD-1 to Soluble PD-L1. Soluble PD-1 and soluble PD-L1 refers to proteins with carboxyl-end truncations that remove the transmembrane-spanning regions and are fused to heterologous sequences, specifically the Fc portion of the human immunoglobuling G sequence (Ig) or the hexahistidine epitope tag (His). All binding studies were performed in an HTRF assay buffer consisting of dPBS supplemented with 0.1% (w/v) bovine serum albumin and 0.05% (v/v) Tween-20. For the PD-1-Ig/PD-L1-His binding assay, inhibitors were pre-incubated with PD-L1-His (10 nM final) for 15 m in 4 μl of assay buffer, followed by addition of PD-1-Ig (20 nM final) in 1 μl of assay buffer and further incubation for 15 m. PD-L1 fusion proteins from either human, cynomologous macaques, mouse, or other species were used. HTRF detection was achieved using europium crypate-labeled anti-Ig monoclonal antibody (1 nM final) and allophycocyanin (APC) labeled anti-His monoclonal antibody (20 nM final). Antibodies were diluted in HTRF detection buffer and 5 μl was dispensed on top of binding reaction. The reaction was allowed to equilibrate for 30 minutes and signal (665 nm/620 nm ratio) was obtained using an EnVision fluorometer. Additional binding assays were established between PD-1-Ig/PD-L2-His (20 and 5 nM, respectively), CD80-His/PD-L1-Ig (100 and 10 nM, respectively) and CD80-His/CTLA4-Ig (10 and 5 nM, respectively). Binding/competition studies between biotinylated Compound No. 71 and human PD-L1-His were performed as follows. Macrocyclic peptide inhibitors were pre-incubated with PD-L1-His (10 nM final) for 60 minutes in 4 μl of assay buffer followed by addition of biotinylated Compound No. 71 (0.5 nM final) in 1 μl of assay buffer. Binding was allowed to equilibrate for 30 minutes followed by addition of europium crypated labeled Streptavidin (2.5 pM final) and APC-labeled anti-His (20 nM final) in 5 μl of HTRF buffer. The reaction was allowed to equilibrate for 30 m and signal (665 nm/620 nm ratio) was obtained using an EnVision fluorometer.
Background: Time-resolved FRET reads energy transfer from a long-lived donor to a nearby acceptor.
One may read the IC50 as the midpoint of a concentration-inhibition curve. Lower therefore signals greater potency in that assay. In turn, B1 gave an IC50 of 4 to 9.9 nM.
As for B2, the IC50 fell in the range of 4 to 9.9 nM.
Still for that read-out and setting: the figure for B3 is 4 to 9.9 nM.

The target in the next test is T1, hPDL1(19-239)-TVMV-His. Description: HTRF competition of PD-1-Ig binding to PD-L1-His; code A=0.01-0.06 µM. As to the method:
as §1
B4 came in with an IC50 of 10 to 60 nM.
Same read-out and setting: the figure for B5 is 10 to 60 nM; for B6 it is 10 to 60 nM.
Take B7: the IC50 was in the range of 10 to 60 nM.
Regarding B8, the IC50 is 10 to 60 nM.
Still for that read-out and setting: the figure for B9 is 10 to 60 nM; for B10 it is 10 to 60 nM; for B11 it is 10 to 60 nM.
In turn, B12 registered an IC50 of 10 to 60 nM.
As to B13, the IC50 is 10 to 60 nM.
Take B14: the IC50 was in the range of 10 to 60 nM.
B15 came in with an IC50 of 10 to 60 nM.
On to B16, for which the concentration for half-maximal inhibition (IC50) is 10 to 60 nM.
Same read-out and setting: the result for B17 reads 10 to 60 nM.
As for B18, the IC50 is 10 to 60 nM.
B19: the IC50 was in the range of 10 to 60 nM.
Same read-out and setting: the result for B20 reads 10 to 60 nM; that for B21, 10 to 60 nM.
As for B22, the IC50 was in the range of 10 to 60 nM.
Still for that read-out and setting: the figure for B23 is 10 to 60 nM; for B24 it is 10 to 60 nM.
B25 yielded a concentration for half-maximal inhibition (IC50) of 10 to 60 nM.
Consider B26, for which the IC50 is 10 to 60 nM.
In turn, B27 gave an IC50 of 10 to 60 nM.
Still for that read-out and setting: the result for B28 reads 10 to 60 nM.
